Laboratory results taken from patent US20220362394A1 (SUTRO BIOPHARMA, published 2022).

T1: human BCMA-Fc (human, UniProt Q02223 1-54)
T1 construct: Bought from R&D Systems; also called huBCMA-Fc; not shown: Fc part not described
T1 sequence: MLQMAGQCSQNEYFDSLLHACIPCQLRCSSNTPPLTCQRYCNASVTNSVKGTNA

T2: human BCMA on cells (human, UniProt Q02223 1-184)
T2 construct: also called hBCMA; BCMA on NCI-H929, ARP-1, OPM-2, U266B1, MM.1S, RPMI-8226 cells
T2 sequence: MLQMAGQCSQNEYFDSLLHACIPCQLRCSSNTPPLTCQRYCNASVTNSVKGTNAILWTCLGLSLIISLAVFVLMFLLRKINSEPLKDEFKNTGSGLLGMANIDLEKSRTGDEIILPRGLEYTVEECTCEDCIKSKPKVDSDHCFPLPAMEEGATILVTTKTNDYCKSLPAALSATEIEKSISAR


Assays:
human BCMA-Fc [1] = biological target: T1, human BCMA-Fc; test: ELISA, coated huBCMA-Fc
human BCMA on cells = biological target: T2, human BCMA on cells; test: FACS, NCI-H929 cells
Protocol: (§1) Variants for which sufficient protein was purified in secondary screening were tested in a fluorescence-activated cell sorting (FACS) cell-binding assay. […] 6-12 point dilutions of anti-BCMA variants starting from concentrations of about 100-200 nM antibody were dispensed into each well using a BioMekFX (Beckman Coulter). Cells were then incubated on ice for 1 hr, washed with FACS buffer and incubated for 1 hr on ice with […] FACS buffer containing 2.5 μg/ml Alexa647-conjugated Goat Anti-Human IgG dispensed using BioMekFX (Beckman Coulter). Cells were then washed 2× with FACS buffer and fixed for 10 minutes in […] PBS with 2% paraformaldehyde (PFA) prior to fluorescence detection. Samples were acquired using a Beckton Dickinson LSRII FACS. Geometric Mean Fluorescence Intensity of BCMA antibody binding was analyzed using FlowJo® software (Tree Star, Inc.).

human BCMA-Fc [2] = biological target: T1, human BCMA-Fc; test: SPR Biacore, antibody captured, 25 C
Protocol: Anti-Fab or anti-Fc polyclonal antibodies were immobilized onto a CM5 chip (GE Life Sciences) using amine coupling chemistry (from Amine Coupling Kit, GE Life Sciences). The immobilization steps were carried out at a flow rate of 25 μL/min in 1×HBS-EP+ buffer (GE Life Sciences; 10× Stock diluted before use). The sensor surfaces were activated for 7 min with a mixture of NHS (0.05 M) and EDC (0.2 M). The anti-Fab or anti-Fc antibodies were injected over all 4 flow cells at a concentration of 25 μg/ml in 10 mM sodium acetate, pH 4.5, for 7 min. Ethanolamine (1 M, pH 8.5) was injected for 7 min to block any remaining activated groups.
Off-rate and kinetic binding experiments were performed at 25° C. using 1×HBS-EP+ buffer. […] After capturing ligand (antibody) on the anti-Fab or anti-Fc surface, the analyte (human BCMA-Fc, cyno BCMA-Fc, or human BCMA from R&D Systems, custom protein production, or Sigma Aldrich, respectively) was bound for 180 seconds, followed by a 600 second dissociation phase at a flow rate of 50 μL/min. Between each ligand capture and analyte binding cycle, regeneration was carried out using 2 injections of 10 mM glycine pH 2.0 for 30 seconds at 30 μL/min, followed by a 30 second buffer wash step.
The data was fit with the Biacore T200 Evaluation software, using a 1-1 Langmuir binding model. KD (affinity, nM) was determined as a ratio of the kinetic rate constants calculated from the fits of the association and dissociation phases.

cynomolgus BCMA on cells = cynomolgus BCMA on cells (cynomolgus monkey, UniProt Q02223 1-184 (human entry)); test: FACS, 293T-cynoBCMA cells
Protocol: as §1

cyno BCMA-Fc = biological target: T3, cyno BCMA-Fc (cynomolgus monkey, UniProt Q02223 1-54 (human entry)); test: ELISA, coated cynoBCMA-Fc
T3 construct: Custom protein production; also called cynomolgus BCMA-Fc; not shown: Fc part not described

rat BCMA on cells = biological target: T4, rat BCMA on cells (rat); test: FACS, 293T-ratBCMA cells
T4 construct: whole, on cells

Chain of cynomolgus BCMA on cells (Q02223 other isoform, or with tags, fused parts or gaps): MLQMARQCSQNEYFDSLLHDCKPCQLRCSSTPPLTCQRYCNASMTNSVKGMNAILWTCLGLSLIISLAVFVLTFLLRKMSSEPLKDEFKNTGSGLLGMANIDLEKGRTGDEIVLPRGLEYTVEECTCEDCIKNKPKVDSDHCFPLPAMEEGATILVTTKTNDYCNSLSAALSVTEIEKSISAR

Binder	Bmax (human BCMA-Fc [1])	EC50 (human BCMA-Fc [1]) [nM]	Bmax (human BCMA on cells) [MFI]	Kd (human BCMA on cells) [nM]	Kd (human BCMA-Fc [2]) [nM]	koff (human BCMA-Fc [2]) [s⁻¹]	kon (human BCMA-Fc [2]) [M⁻¹ s⁻¹]	Bmax (cynomolgus BCMA on cells) [MFI]	Kd (cynomolgus BCMA on cells) [nM]	Bmax (cyno BCMA-Fc)	EC50 (cyno BCMA-Fc) [nM]	Bmax (rat BCMA on cells) [MFI]	Kd (rat BCMA on cells) [nM]
2137-A05 (antibody, V domains shown, also called Antibody 14) VH: EVQLVESGGGLVQPGGSLRLSCAASGFNINNSYIHWVRQAPGKGLEWVGWIYPYSGYTNYADSVKGRFTISADTSKNTAYLQMNSLRAEDTAVYYCARDYGPWYGTGVLDYWGQGTLVTVSS VL: not shown	3.3e+06	0.52	2690	10	2.36	0.00332	1.41e+06	1910	18.3	2.2e+06	419		
2288-A03 (antibody, V domains shown, also called Antibody 15) VH: EVQLVESGGGLVQPGGSLRLSCAASGFNINNSWIHWVRQAPGKGLEWVGWIYPYIGFTEYADSVKGRFTISADTSKNTAYLQMNSLRAEDTAVYYCARDYDLRYLTGVLDYWGQGTLVTVSS VL: not shown	4.24e+06	0.56	16300	4.8	0.557	0.000516	927000	46800	1.8	3.02e+06	0.57		
10F4 (antibody, V domains shown, Chicken HybriFree-derived antibody; also called Antibody 37) VH: AVTLDESGGGLQTPGGALSLVCKASGFTFSGYNMGWVRQAPGKGLEYVAGITYGTGSYTAYGAAVKGRATISRDNGQSTLRLQLNNLRAEDTATYYCARGGGLNSYGCSGANIDAWGHGTEVIVSS VL: ALTQPSSVSANLGGTVKITCSGGGNYFGSYYYGWYQQKAPGSAPVTVIYNNNNRPSDIPSRFSGSTSGSTSTLTISGVRAEDEAVYFCGGFDSSTDAIFGAGTTLTVL			18700	10.5				12800	5.94			410	5.47
2290-A02 (antibody, V domains shown, also called Antibody 22) VH: EVQLVESGGGLVQPGGSLRLSCAASGFNISTRWIHWVRQAPGKGLEWVGVITPSAGYTHYADSVKGRFTISAGTSKNTAYLQMNSLRAEDTAVYYCARDLGSRYWVGVFDYWGQGTLVTVSS VL: not shown	4.87e+06	0.4	33600	4.9	0.567	0.000131	231000	70300	2.3	4.47e+06	0.4		
2290-C08 (antibody, V domains shown, also called Antibody 21) VH: EVQLVESGGGLVQPGGSLRLSCAASGFNIQPYWIHWVRQAPGKGLEWVGVITPPSGYTYYADSVKGRFTISADTSKNTAYLQMNSLRAEDTAVYYCARDWGVGYWVGFSDYWGQGTLVTVSS VL: not shown	4.33e+06	0.3	37800	11	0.378	0.000252	666000	71000	2.3	4.14e+06	0.2		
2290-D05 (antibody, V domains shown, also called Antibody 20) VH: EVQLVESGGGLVQPGGSLRLSCAASGFNIASRWIHWVRQAPGKGLEWVGVITPSAGYTYYADSVKGRFTISADTSKNTAYLQMNSLRAEDTAVYYCARDLGYGYWVGFSDYWGQGTLVTVSS VL: not shown	3.94e+06	0.3	21800	4.6	0.937	0.000446	476000	57600	1.7	3.61e+06	0.2		
2290-D02 (antibody, V domains shown, also called Antibody 18) VH: EVQLVESGGGLVQPGGSLRLSCAASGFNISSYWIHWVRQAPGKGLEWMGVITPAAGYTYYADSVKGRFTISADTSKNTAYLQMNSLRAEDTAVYYCARDLGHRYWVGVFDYWGQGTLVTVSS VL: not shown	4.54e+06	0.3	33600	19.2	0.949	0.000277	292000	75800	3.5	3.91e+06	0.2		
2291-A04 (antibody, V domains shown, also called Antibody 28) VH: EVQLVESGGGLVQPGGSLRLSCAASGFNISSYGIHWVRQAPGKGLEWVGFISPYDGYTEYADSVKGRFTISAGTSKNTAYLQMNSLRAEDTAVYYCARDFNDRYFTYVLDYWGQGTLVTVSS VL: not shown	4.6e+06	0.23	33900	5	0.716	0.000349	487000	63800	1.2	4.23e+06	0.2		
2291-A01 (antibody, V domains shown, also called Antibody 29) VH: EVQLVESGGGLVQPGGSLRLSCAASGFNIDPYTIHWARQAPGKGLEWVAHISPYDGYTDYADSVKGRFTISADTSKNTAYLQMNSLRAEDTAVYYCARDFYDRYSTYVLDYWGQGTLVTVSS VL: not shown	5e+06	0.39	32500	4.9	0.0438	2.82e-05	644000	67200	1	4.77e+06	0.33		
2291-F10 (antibody, V domains shown, also called Antibody 27) VH: EVQLVESGGGLVQPGGSLRLSCAASGFNIDPYTIHWVRQAPGKGLEWVGWISPYDGYTEYADSVKGRFTISADTSKNTAYLQMNSLRAEDTAVYYCARDYYDRYSTYVLDYWGRGTLVTVSS VL: not shown	3.72e+06	0.1	33800	5.4	0.178	9.65e-05	541000	66500	0.7	3.43e+06	0.06		
2291-D07 (antibody, V domains shown, also called Antibody 26) VH: EVQLVESGGGLVQPGGSLRLSCAASGFNIKDTYIHWVRQAPGKGLEWVGVISPYDGYTEYADSVKGRFTISADTSKNTAYLQMNSLRAEDTAVYYCAHDFYDRYSTYVLDYWGQGTLVTVSS VL: not shown	4.08e+06	0.03	28700	3.8	0.948	0.000414	437000	67900	0.5	3.94e+06	0.03		
2291-G05 (antibody, V domains shown, also called Antibody 24) VH: EVQLVESGGGLVQPGGSLRLSCAASGFNIAAYTIHWVRQAPGKGLEWVGWISPYGGYTEYADSVKGRFTISADTSKNTAYLQMNSLRAEDTAVYYCARDFHDRYATFVLDYWGQGTLVTVSS VL: not shown	3.91e+06	0.13	23200	1.4	0.962	0.000423	440000	62700	1	3.38e+06	0.09		
2291-E06 (antibody, V domains shown, also called Antibody 25) VH: EVQLVESGGGLVQPGGSLRLSCAASGFNISPYTIHWVRQAPGKGLEWVAHIFPSGGYTDYADSVKGRFTISADTSKNTAYLQMNSLRAEDTAVYYCARDFYDRYATYVLDYWGQGTLVTVSS VL: not shown	4.11e+06	0.21	34400	5.8	0.763	0.000357	468000	68300	1.4	3.36e+06	0.13		
